Results taken from the supplement of paper PMC11780869.

What follows are sequences tested on Bacillus subtilis (assay: cleaved RNA product abundance (RNA/gDNA barcode ratio) relative to median wild-type variant (ratio to wild type); higher = more accumulation of the downstream cleavage product). Settings: experiment (reporter, strain, medium): exp 8a: truncated aprE reporter, strain BJT201 with 2% xylose (RNase J1 expressed); cleavage site: glnRA (positions -5 to +31 mutated).
Summary of the method: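 Cleaved product abundance is expressed as the RNA:gDNA barcode ratio per construct, scaled to the median construct carrying the unmutated site. The constructs were barcoded, mutagenized RNase Y cleavage-site windows in truncated aprE or tetM reporter mRNAs integrated into the B. subtilis chromosome. Cultures grew in LB at 37°C from OD600 0.0003 to 0.3 before cleaved RNA was gel-selected and barcode-sequenced.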

Sequence	cleaved RNA product abundance
CGACATGTCCCGCTTCTTTCATTAATCCGTCAGCAAATGTTTTGCTATATACATTTACCTTTTAAGAGGAGGAAT	0.398
CGACATGTCCCGCTTCTTTCATTAATCCGTCAGCAACTATTTTGCTATATACATTTACCTTTTAAGAGGAGGAAT	0.387
CGACATGTCCCGCTTCTTTCATTAATCCGTCAGCAACTGTATTGCTATATACATTTACCTTTTAAGAGGAGGAAT	0.214
CGACATGTCCCGCTTCTTTCATTAATCCGTCAGCAACTGTTTAGCTATATACATTTACCTTTTAAGAGGAGGAAT	0.305
CGACATGTCCCGCTTCTTTCATTAATCCGTCAGCAACTGTTTTGCTATATACATTAACCTTTTAAGAGGAGGAAT	0.528
CGACATGTCCCGCTTCTTTCATTAATCCGTCAGCAACTGTTTTGCTATATACATTTAACTTTTAAGAGGAGGAAT	0.483
CGACATGTCCCGCTTCTTTCATTAATCCGTCAGCAACTGTTTTGCTATATACATTTACCATTTAAGAGGAGGAAT	0.704
CGACATGTCCCGCTTCTTTCATTAATCCGTCAGCAACTGTTTTGCTATATACATTTACCTTTTAAGAGGAGGAAT	0.406
CGACATGTCCCGCTTCTTTCATTAATCCGTCAGCAACTGTTTTGCTATATATATTTACCTTTTAAGAGGAGGAAT	0.367
CGACATGTCCCGCTTCTTTCATTAATCCGTCAGCAACTGTTTTGCTATATTCATTTACCTTTTAAGAGGAGGAAT	0.112
CGACATGTCCCGCTTCTTTCATTAATCCGTCAGCAACTGTTTTGTTATATACATTTACCTTTTAAGAGGAGGAAT	0.485
CGACATGTCCCGCTTCTTTCATTAATCCGTCAGCAACTTTTTTGCTATATACATTTACCTTTTAAGAGGAGGAAT	0.621
CGACATGTCCCGCTTCTTTCATTAATCCGTCCGCAACTGTTTTGCTATATACATTTACCTTTTAAGAGGAGGAAT	0.264
CGACATGTCCCGCTTCTTTCATTAATCCGTGAACAACTGTTTTGCTATATACATTTACCTTTTAAGAGGAGGAAT	0.232
CGACATGTCCCGCTTCTTTCATTAATCCGTGAGCAACTATTTTGCTATATACATTTACCTTTTAAGAGGAGGAAT	0.988
CGACATGTCCCGCTTCTTTCATTAATCCGTGAGCAACTGTTTAGCTATATACATTTACCTTTTAAGAGGAGGAAT	0.335
CGACATGTCCCGCTTCTTTCATTAATCCGTGAGCAACTGTTTTGATATATACATTTACCTTTTAAGAGGAGGAAT	0.427
CGACATGTCCCGCTTCTTTCATTAATCCGTGAGCAACTGTTTTGCTATACACATTTACCTTTTAAGAGGAGGAAT	0.0879
CGACATGTCCCGCTTCTTTCATTAATCCGTGAGCAACTGTTTTGCTATATAAATTTACCTTTTAAGAGGAGGAAT	0.357
CGACATGTCCCGCTTCTTTCATTAATCCGTGAGCAACTGTTTTGCTATATACATTTAACTTTTAAGAGGAGGAAT	0.854
CGACATGTCCCGCTTCTTTCATTAATCCGTGAGCAACTGTTTTGCTATATACATTTACCATTTAAGAGGAGGAAT	0.655
CGACATGTCCCGCTTCTTTCATTAATCCGTGAGCAACTGTTTTGCTATATACATTTACCTTTTAAGAGGAGGAAT	0.549

Sequence	cleaved RNA product abundance
CGACATGTCCCGCTTCTTTCATTAATCCGTGAGCAACTGTTTTGCTATATACATTTACTTTTTAAGAGGAGGAAT	0.477
CGACATGTCCCGCTTCTTTCATTAATCCGTGAGCAACTGTTTTGCTATATACTTTTACCTTTTAAGAGGAGGAAT	0.154
CGACATGTCCCGCTTCTTTCATTAATCCGTGAGCAACTGTTTTGCTATATATATTTACCTTTTAAGAGGAGGAAT	0.87
CGACATGTCCCGCTTCTTTCATTAATCCGTGAGCAACTGTTTTGCTATATTCATTTACCTTTTAAGAGGAGGAAT	0.177
CGACATGTCCCGCTTCTTTCATTAATCCGTGAGCAACTGTTTTGCTTTATACATTTACCTTTTAAGAGGAGGAAT	0.184
CGACATGTCCCGCTTCTTTCATTAATCCGTGAGCAAGTGTTTTGCTATATACATTTACCTTTTAAGAGGAGGAAT	0.375
CGACATGTCCCGCTTCTTTCATTAATCCGTGAGCAGCTGTTTTGCTATATACATTTACCTTTTAAGAGGAGGAAT	0.231
CGACATGTCCCGCTTCTTTCATTAATCCGTGATCAACTGTTTTGCTATATACATTTACCTTTTAAGAGGAGGAAT	0.346
CGACATGTCCCGCTTCTTTCATTAATCCGTTAAAAACTGTTTTGCTATATACATTTACCTTTTAAGAGGAGGAAT	0.292
CGACATGTCCCGCTTCTTTCATTAATCCGTTAACAAATGTTTTGCTATATACATTTACCTTTTAAGAGGAGGAAT	0.287
CGACATGTCCCGCTTCTTTCATTAATCCGTTAACAACAGTTTTGCTATATACATTTACCTTTTAAGAGGAGGAAT	0.183
CGACATGTCCCGCTTCTTTCATTAATCCGTTAACAACTATTTTGCTATATACATTTACCTTTTAAGAGGAGGAAT	0.275
CGACATGTCCCGCTTCTTTCATTAATCCGTTAACAACTGATTTGCTATATACATTTACCTTTTAAGAGGAGGAAT	0.248
CGACATGTCCCGCTTCTTTCATTAATCCGTTAACAACTGTATTGCTATATACATTTACCTTTTAAGAGGAGGAAT	0.316
CGACATGTCCCGCTTCTTTCATTAATCCGTTAACAACTGTCTTGCTATATACATTTACCTTTTAAGAGGAGGAAT	0.0713
CGACATGTCCCGCTTCTTTCATTAATCCGTTAACAACTGTGTTGCTATATACATTTACCTTTTAAGAGGAGGAAT	0.24
CGACATGTCCCGCTTCTTTCATTAATCCGTTAACAACTGTTATGCTATATACATTTACCTTTTAAGAGGAGGAAT	0.219
CGACATGTCCCGCTTCTTTCATTAATCCGTTAACAACTGTTTGGCTATATACATTTACCTTTTAAGAGGAGGAAT	0.159
CGACATGTCCCGCTTCTTTCATTAATCCGTTAACAACTGTTTTACTATATACATTTACCTTTTAAGAGGAGGAAT	0.222
CGACATGTCCCGCTTCTTTCATTAATCCGTTAACAACTGTTTTCCTATATACATTTACCTTTTAAGAGGAGGAAT	0.263
CGACATGTCCCGCTTCTTTCATTAATCCGTTAACAACTGTTTTGATATATACATTTACCTTTTAAGAGGAGGAAT	0.235
CGACATGTCCCGCTTCTTTCATTAATCCGTTAACAACTGTTTTGCAATATACATTTACCTTTTAAGAGGAGGAAT	0.185

Sequence	cleaved RNA product abundance
CGACATGTCCCGCTTCTTTCATTAATCCGTTAACAACTGTTTTGCCATATACATTTACCTTTTAAGAGGAGGAAT	0.114
CGACATGTCCCGCTTCTTTCATTAATCCGTTAACAACTGTTTTGCGATATACATTTACCTTTTAAGAGGAGGAAT	0.215
CGACATGTCCCGCTTCTTTCATTAATCCGTTAACAACTGTTTTGCTAAATACATTTACCTTTTAAGAGGAGGAAT	0.202
CGACATGTCCCGCTTCTTTCATTAATCCGTTAACAACTGTTTTGCTATAAACATTTACCTTTTAAGAGGAGGAAT	0.207
CGACATGTCCCGCTTCTTTCATTAATCCGTTAACAACTGTTTTGCTATACACATTTACCTTTTAAGAGGAGGAAT	0.162
CGACATGTCCCGCTTCTTTCATTAATCCGTTAACAACTGTTTTGCTATATAAATTTACCTTTTAAGAGGAGGAAT	0.227
CGACATGTCCCGCTTCTTTCATTAATCCGTTAACAACTGTTTTGCTATATACAATTACCTTTTAAGAGGAGGAAT	0.242
CGACATGTCCCGCTTCTTTCATTAATCCGTTAACAACTGTTTTGCTATATACACTTACCTTTTAAGAGGAGGAAT	0.329
CGACATGTCCCGCTTCTTTCATTAATCCGTTAACAACTGTTTTGCTATATACATATACCTTTTAAGAGGAGGAAT	0.195
CGACATGTCCCGCTTCTTTCATTAATCCGTTAACAACTGTTTTGCTATATACATTTAACTTTTAAGAGGAGGAAT	0.24
CGACATGTCCCGCTTCTTTCATTAATCCGTTAACAACTGTTTTGCTATATACATTTACATTTTAAGAGGAGGAAT	0.202
CGACATGTCCCGCTTCTTTCATTAATCCGTTAACAACTGTTTTGCTATATACATTTACCATTTAAGAGGAGGAAT	0.176
CGACATGTCCCGCTTCTTTCATTAATCCGTTAACAACTGTTTTGCTATATACATTTACCCTTTAAGAGGAGGAAT	0.198
CGACATGTCCCGCTTCTTTCATTAATCCGTTAACAACTGTTTTGCTATATACATTTACCTTTTAAGAGGAGGAAT	0.217
CGACATGTCCCGCTTCTTTCATTAATCCGTTAACAACTGTTTTGCTATATACATTTACTTTTTAAGAGGAGGAAT	0.253
CGACATGTCCCGCTTCTTTCATTAATCCGTTAACAACTGTTTTGCTATATACATTTAGCTTTTAAGAGGAGGAAT	0.204
CGACATGTCCCGCTTCTTTCATTAATCCGTTAACAACTGTTTTGCTATATACATTTATCTTTTAAGAGGAGGAAT	0.236
CGACATGTCCCGCTTCTTTCATTAATCCGTTAACAACTGTTTTGCTATATACATTTCCCTTTTAAGAGGAGGAAT	0.155
CGACATGTCCCGCTTCTTTCATTAATCCGTTAACAACTGTTTTGCTATATACATTTGCATTTTAAGAGGAGGAAT	0.202
CGACATGTCCCGCTTCTTTCATTAATCCGTTAACAACTGTTTTGCTATATACATTTTCCTTTTAAGAGGAGGAAT	0.0904
CGACATGTCCCGCTTCTTTCATTAATCCGTTAACAACTGTTTTGCTATATAGATTTACCTTTTAAGAGGAGGAAT	0.201
CGACATGTCCCGCTTCTTTCATTAATCCGTTAACAACTGTTTTGCTATATATATTTACCTTTTAAGAGGAGGAAT	0.2
